According to the supplement of paper PMC10567573:

B1: TPD52L2 (parent)
chain: EAEEEELRAELTKVEEEIVTLRQV

Variants of: B1
Experiment: protein stability index of a GFP-peptide fusion (GPS, HEK-293T) (PSI 1-6); higher = more stable
Details: c terminus: a fixed tail appended
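Note: lentivirally expressed fusions sorted by FACS into six bins by GFP to DsRed ratio, PSI derived from sequencing read proportions per bin multiplied by bin number.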

Protein stability index of substitutions, site by site:
E5: H 2.44, A 2.3, Q 3.35, S 2.35, D 3.91, I 2.98, G 2.97, C 2.46, W 2.42, F 2.34, M 2.48, T 2.71, Y 3.06, N 2.28
A2: P 4.03, S 3.42, R 3.29, M 2.8, C 3.17, Y 3.1, G 4.06, E 4.6, W 2.88, F 3.45, V 3.3, Q 4.57, N 4.25, K 3.04, H 3.23
T12: Y 3.39, A 3.35, L 3.08, I 3.51, D 4.91, P 5.06, M 2.65, V 4.06, G 4.8, F 3.83, Q 3.87, N 3.9, S 3.75, C 3.63, H 3.51, R 3.12
L21: M 4.72, K 5.86, Y 3.34, S 5.68, W 3.63, F 4.09, I 4.25, Q 5.13, E 5.4, V 5.22, A 4.96, C 4.72, N 5.73, R 5.56, G 5.24, P 5.57
L7: R 5.49, I 5.39, V 5.77, E 5.74, Q 5.62, G 5.14, N 5.41, K 5.49, H 5.2, P 5.55, C 4.93, D 5.5, F 5.23, Y 5.29, T 5.39
E1: L 2.57, M 2.53, A 3.63, G 3.02, S 2.97, H 3.07, K 3.06, Q 3.76, R 2.63, T 2.79, F 2, P 3.43, V 3.58, D 3.74, Y 3.35, I 1.94
E17: R 4.62, S 4.29, W 2.28, D 5.55, Q 3.86, P 4.66, M 4.02, N 4.54, A 4.14, F 2.87, K 4.67, Y 2.35
E15: F 3.61, I 1.81, C 3.94, H 5.12, S 4.39, Q 4.9, A 4.41, G 5.31, Y 3.24, N 5.27, V 2.8, T 4.63, W 3.03, K 5.01
Q23: W 4.35, P 4.58, A 3.56, Y 5.02, F 3.19, T 4.06, H 3.6, E 3.82, G 4.54, D 4.43, N 4.21, K 4.04, M 3.65, L 3.25, I 2.98, R 3.73
V19: N 4.51, A 3.96, W 2.54, H 3.9, T 4.44, L 3.69, M 3.52, S 3.98, P 5.45, E 4.21, K 3.89, Y 3.71, D 4.82, F 3.27
A9: L 2.62, G 4.9, W 2.51, S 4.32, M 2.95, Y 3.44, Q 4, D 3.93, E 4.34, N 3.79, V 3.74, C 3.98, T 3.67
E10: I 2, A 3.05, H 4.38, Y 4.05, Q 3.98, V 2.72, M 3.3, K 4.91, P 5.46, S 3.49, D 4.36
R8: D 4.91, L 3.6, M 3.79, C 4.16, Y 3.41, V 3.97, I 3.83, H 3.91, K 4.59, S 4.79, T 5.17, G 4.55
E3: P 2.92, W 3.43, C 2.65, K 3.18, F 2.45, V 3.22, M 2.71, N 3.1, Y 2.86, H 3.08, T 2.83, D 4.29
L11: Y 5.51, I 4.98, V 5.2, T 5.33, P 5.64, D 5.92, G 5.38, M 3.99, R 5.22, C 5.5, H 5.43, K 5.55, N 5.25, F 5.09
K13: W 4.21, P 5.55, I 3.5, R 3.27, H 5.04, C 5.11, M 4.18, D 5.76, F 4.25, L 4.06, N 5.26, A 3.96
V24: C 3.63, W 3.89, G 3.41, F 3.25, H 3.92, T 4.39, Y 3.83, K 4.87, R 4.39, E 4.35, S 4.52, A 4.41, Q 4.14, L 3.78
V14: Y 5.05, N 5.33, F 5.01, M 4.43, K 5.72, H 5.7, T 4.37, W 4.05, E 5.67, A 4.05
E6: F 2.68, V 3.81, G 2.73, K 3, D 2.98, Y 3.08, Q 3.46, N 3.15, A 3.06, P 4.32, M 2.08, C 2.51, I 3.62, T 3.58
E16: R 2.79, Q 3.52, Y 1.82, G 4.84, S 3.46, L 3.06, P 4.79, A 3.85, V 3.27, N 3.93, C 3.82, K 3.25, F 2.76
T20: C 3.46, D 5.3, H 3.56, I 3.06, E 3.84, G 3.86, K 3.44, N 3.34, W 2.99, V 3.92, Y 2.77, F 2.85, P 4.98, Q 4.04, S 3.56, L 2.91, A 3.9
I18: K 5.19, H 5.24, P 5.69, F 4.52, D 5.66, M 5.11, W 5.09, L 3.92, E 5.86, Y 5.12, T 5.19, G 5.67, R 5.71, V 5.35
E4: A 3.77, K 4.13, W 2.93, M 3.42, P 3.68, I 3.73, N 4.34, D 3.89, R 3.76, Q 4.02, G 3.23, S 3.41, L 3.81, H 3.21, Y 2.25
R22: L 3.06, Q 3.77, M 3.17, Y 2.54, D 3.54, W 2.92, T 4.18, S 4.37, N 3.9, C 3.66, A 4.54, P 4.85, F 2.33, E 4.25, V 3.4
